From the nanobody polyreactivity screen of Harvey et al. (2022) come the findings set out here.

A short description of the series: yeast display, Sf9 membrane polyspecificity reagent, FACS + sequencing; frameworks hold sequencing errors. The gist of the method: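 In a synthetic yeast display library (Saccharomyces cerevisiae BJ5465), nanobody expression was induced with galactose for 36–48 hours. FACS gates were set low and high (top ~1%) using anti-HA fluorescence for expression and streptavidin fluorescence for binding of the Sf9 membrane reagent. Each polyreactivity label is drawn from the gate of origin.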
As for “QVQLVESGGGLVQAGGSLRLSCAASGRTFFPYGMGWYRQAPGKERELVASISYSGGITYYADSVKGRFTISRDNAKNTVYLQMNSLKPEDTAVYYCSVRTIWRFRYDYWGQGTQVTVSS”, the “polyreactivity (PSR sort gate)” value was “high polyreactivity”. The result for “QVHLVESGGGIVQAGVSLRLSCAASGRIFYGYTMGWYRQAPGKERELVASIDYSTGRTYYADSVKGRFTISRDNAKYTVYLQMNSLKPEDTAVYYCNADPNYSFLRYDYWGQGTQVTVSS” reads “high polyreactivity”. Next, “QDQLVESGGGLVQAGGSLRLSCAASGFTFSYYTMGWYRHAPGKERELVAAISSTGVSTYYADSVKGRFTISRDNAKNTVYLQMNSLKPEDTAVYYCAADYYGVYEYYYWGQGTQVTVSS”: “high polyreactivity”; “QVQLVESGGGLVQAGGSLRLSCAASGRTIDYNGMGSYRQAPGKERELVAVISSSGGSTFYADSVKGRFTISRDNAKNTVYLQMNSLKPVDTAVYYCAADFIVAYTLHGSYDYWGQGTQVTVSS”: “low polyreactivity”. The result for “QVQLVESGGGLVQAGGILRLSCAASGRIFSSYSMGWYRQAPGKESELVAAISRSGARTYYADSVKGRFTISRDYAKNTVYLQMNSLKPEDTAVYYCAAVTVAGYDYWGQGTQVTVSS” reads “high polyreactivity”; that for “QDQLVESGGGLVQAGGSLRLSCAASGSIFHGYGRGWYRQAPGKERELVASITWIGGDTYYADSVKGRFTISRDNPKNTVYLQMNSLKPEDTAVYYCNAEWVVTYIYDYWGQGTQVTVSS”, “low polyreactivity”. For “QVQLVESGGGLGQAGGSLRLSCAASGSIFPDYVMGWYRQAPGKARELVAAISRGGSTYYADSVKGRFTISRDNAKNTVYLQMNSLKPEDTAVYYCAADNPHWRYEYWGPGTQVTVSS”, the “polyreactivity (PSR sort gate)” value was “high polyreactivity”.

In the case of “QVQLVESGGGLVQAGGSLRLSCAASGRTFWSYAMGWYRQAPGKERELVAAITSSGGTTNYADSVKGRFTISRDNAKNTVYLQMNSLKPEDTAVYYCAAYSWYFGSRYDYWGQGTQVTVSS”, the “polyreactivity (PSR sort gate)” value is on record as “low polyreactivity”. The result for “QVQLVESGGGLVQAGGSLRLSCAASGSTFGPYAMGWYRPAPGKERELVAAITSSGGTTYYADSVKGRFTISRDNAKNTVYLQMNSLKPEDTAVYYCAVDYYGKVGDDYWGQGTQVTVSS” reads “low polyreactivity”. The result for “QVQLVESGGGLVQAGGSLRLSCAASGFTFVNYAMGWYRQAPGKERELVAAIRRSGSRTYYADSVKGRCTISRDIAKYTVYLQMNSLKPDDTPVYYCAAVWYRLYGYWGQGTQVTVSS” reads “low polyreactivity”; that for “QVQLVESGGGLVQAGGSLRLSCAASGGTFRTYAMGWYRQAAGKERELVAAITGSGGRTYYADSVKGRFTISRDNAKNTVYLQMNSLKPEDTAVYDCNTGPVYQGYHWGQGTQVTVSS”, “high polyreactivity”. The result for “QVQLVESGGGLVQAGGSLRLSCAASGRTFSNYAMGWYRQAPGKERELVAAITGSGGSTYYADSVKGRFTISRDNAKNTVYLQLISLKPEDTAVYYCNAYRASKYLTGNGHDYWGQGTQVTVSS” reads “low polyreactivity”.

Turning to “QVQLVESAGGLVQAGGSLRLSCPASGSIFQPYAMGWYRQAPGKERELVAAINGRGGSTHYADSVKGRFTISRDNAKNTVYLQMNSLKPEDTAVYYCAARYYRDYRWYTYAYDYWGQGTQVTVSS”, the “polyreactivity (PSR sort gate)” value is “high polyreactivity”.

In the case of “QVQLVESGGGLVQAGGSLRLSCAASGSTFYNYAMGWYRQAPGKEREFVAAITRSGGSTYYADSVKGRFSISRDNAKNTVYLQMNSLKPEDTAVYYCNAGGHWYYHRYRGYYWGQGTQVTVSS”, the “polyreactivity (PSR sort gate)” value was “high polyreactivity”. Take “QVQLVESGGGLVQAGGSLRLSCAASGRTIYTYAMGWYRQAPGKERELVAAITKRGGSTYYADSVKGRFTISRDNAQNTVYLQMNSLKPEDTAVYYCNKELATARGQSLYRTYSGYGYWGQGTQVTVSS”: the “polyreactivity (PSR sort gate)” value was “high polyreactivity”. For the sequence “QVQLVESGGGLVQAGGSLRLSCAASAGIFVVYGMGWYRQAPGKERELVAAISWRGGSTYYADSVKGRFTISRDNAKNTVYLQMNSLKPEDTAVYYCAADQYYGGYDYWGQGTQVTVSS”, the “polyreactivity (PSR sort gate)” value is listed as “low polyreactivity”. For “QVQLVESGGGLVQAGGSLRLSCAASGIIFGYSAMGWYRQAPGKERELVAAITRSGSSTYYADSVKGRFTISRDNAKNTVYLQMNSLKPEDTAVYYCAADNFYQSYGYWGQGTQVTVSS”, the “polyreactivity (PSR sort gate)” value is “low polyreactivity”. Next, “QVQLVESGGGLVQAGGSLRLSGAASGRTFVYYAMGWYRQAPGKEREFVAAISRSGGRTSYADSVKGRFTISRDNAKNTVYLQMNSLKPEDTAVYDCAKRPQFFWSHPYDYWGQGTLVTVSS”: “high polyreactivity”; “QVQLVESGGALVQAGGSLRLSCAASAFIFKANAMGRYRQAPGKERELVASITFGGDSTYYADSVKGRFTISRDNAKNTVYLQMNSLKAEDNAVYFCNTRRRSYPTYYYWGQGTQVTVLS”: “low polyreactivity”.

“QVQLVESGGGLVQAGGSLRLSCAASGFIFYYNAMGWDRQAPGKERELVAAIDSGGRTNYADSVKGRFTISRDNAKNTVYLQMNSLKPEDTAVYYCATDPYQPYEGDYWGQGTQVTVSS”: the “polyreactivity (PSR sort gate)” value was “low polyreactivity”.

Take “QGQLVESGGGLVQAGGSLRLSCAASGRTFDSNAMGWYRQAPGKERELFAAISQRGGRTYYADSVKGRFTISRDNAKNTVYFQMNSLKQVYTAFYYCNKVGRRKLDYWGQGTQVTVSS”: the “polyreactivity (PSR sort gate)” value was “high polyreactivity”.

In the case of “QVQLVESGGGLVQAGGSLRLSCAASGRIFINNAMGWYRQAPGKEREFVAAITSGGRTYYADSVKGRFTISRDNAKNTVYLQMNSLKPEDTAVYYCAARYYRQYTRHYGYGYWGQGTQVTVSS”, the “polyreactivity (PSR sort gate)” value is “high polyreactivity”. Turning to “QVQLVESGGGLVQAGGSLRLSCAASGRIFDYYAMAWYRQAPGKERELVSAISSNGVSTYYADSVKGRFTISRDNPKNTVYLQMNSLKPEDTAVYYCAADPTRHSSFPQYDSWGQGTQVTVSS”, the “polyreactivity (PSR sort gate)” value is “low polyreactivity”. The result for “QVQLVESGGGLVQAGGSLRLSCAASGRIFFLYAMGWYRQAPGKERELVAAITWSADGTYYADSVKGRFTISRDNAKNTVYLQMNSLKPEDTAVYYCNADAYTTASSYNWWYYYWGQGTQVTVSS” reads “low polyreactivity”; that for “QVQLGESGGGLVQAGGSLRLSCAASGSTFNENAMGWYRQAPGKERELVAAISNDGSTTYADSVKGRFTISRDNAKNTVYLQMNSLKPEDTALYYCNAVSYIDTQSSLGDSWGQGTQVTVSS”, “low polyreactivity”.

With “QVQLVESGGGLVQAGGSLRLSCAASGRLFYYNAMGWYRQAPGKERELVAAISWSGGSTYYADSVKGRFTISRDNAKNTVYLQMNSLKPEDTAVYYCAVDVYGYTPRPTREPLIYEYWGQGTQVTVSS”, the “polyreactivity (PSR sort gate)” value is “low polyreactivity”. Next, “QVQLVESGGGLVQAGGSLRLSCAASGFTFSFYAMGWYRQAPGKERELVATISSGGSTTYAVSVKGRFTISRDNAKNTVYLQMNSLKPEDTAVYYCNARPGQSGARFGYWGQGTQVTVSS”: “high polyreactivity”. Turning to “QVQLVESGGGLVQAGGSLRLSCAASGSIFVPYDMGWYRQAPGKERELVAVISTDDGTYYADSVKGRFTISRDNAKNTVYLQMNSLKPEDTAVYYCAADRWYREYDYWGQGTQVTVSS”, the “polyreactivity (PSR sort gate)” value was “low polyreactivity”. With “QVNLVESGGGLVLAGGSLRLSCAASGRIYRRNTMGWYRPAPGKERELVAAITSSGGSTYADSVKGRFTISRDNAKNTVYLQMNSLKPEDTAVYYCDTYVAYHRGYRTYDHWGQGTQVTVSS”, the “polyreactivity (PSR sort gate)” value is recorded as “low polyreactivity”. The result for “QVQLVESGGGLVQAGGSLRLSCAASGFTFRQYAMGWYRQAPGKERELVAAISSGGSTYYADSVKGRFTISRDNAKNTVYLQMNSLKPEDTAVYYCNAVARYYVAYDMYWGQGTQVTVSS” reads “high polyreactivity”. Next, “QVQLVESGGGLVQAGGSLRLSCAASGSTFALYAMGWYRQAPGKERELVAVITSGGSTYYADSVKGRFTISRDNAKNTVYLQMNSLKPEDTAVYYCAARRHVRKGPLGYWGQGTQVTLSS”: “high polyreactivity”; “QVQLVESGGGLVQAGGSLRLSCAASGRIFNVNVMGWYRQAPGKERELVASINWSGTSTYYADSVKGRFTISRDNAKNTVYLQMNSLKPEDTAVYYCAADLALYNTLYLTLPDYYWGQGTQVTVSS”: “low polyreactivity”.

Take “QDQLVESGGGLVQAGGSLRLSCAASGSIFPSNTMGWYRQAPGKERELVAAITGSGGSTYYADSVKGRFTISRDNAKNTVYLQMNSLKPEDTAVYYCAARYRVDGVKYGYWGQGTQVTVSS”: the “polyreactivity (PSR sort gate)” value is recorded as “high polyreactivity”. For “QDQLVDSGGGLLQAGGSLRLSCAASGSTLSKYAMGWNRQAPGKERELVAAISQRGGSTYYADSVKGRFTISRDNAKYTVYLQMNSLKPEDTAVSYCNALQRRYGYWGQGTQVTESS”, the “polyreactivity (PSR sort gate)” value was “high polyreactivity”. For the sequence “QVQLVESGGGLVQAGGSLRLSCAGSGSTFRSNAMGWYRQAPGKERELVAAISQRGGSTYYADSVKGRFTISRDNAKNTVYLQMNSLKPEDTAVYYCAARLYRGWRPFYYWGQGTQVSVSS”, the “polyreactivity (PSR sort gate)” value is “high polyreactivity”. For the sequence “QVQLVESGGGIVQAGGSLSLTWAASGSTFAYYAMGRYRQAPGKERELVAAISSSGGRTYYADSVKWRFTISRDNAKNTVYLQMIMLKPEDSAVYYCWGQATQVTVSS”, the “polyreactivity (PSR sort gate)” value is on record as “low polyreactivity”. With “QVQLVESGGGLVQAGGSLRLSCAASGRTFGRYAMGWYRQAPGKERELVATITSGGSTNYADSVKGRFTISRDNAKNTVYLQMNSLKPEDTAVYYCAADVKRDRVWGGDYWGQGTQVTVSS”, the “polyreactivity (PSR sort gate)” value is reported as “low polyreactivity”. Next, “QVQLVESGGGLVQAGGSLRLSCAASGSTFDYYGMGWYRQAPGKERELVAAITTSGGSTYYADSVKGRFTISRDNAKNTVYLQMNSLKPEDTAVYYCAAESYWYGTSPYYYLYEYDYWGQGTQVTVSS”: “high polyreactivity”; “QVQLVESGGGLVQAGGSLRLSCAASGSIFTYNAMGWYRPAPGKERELVASITWSGGSTYYADSVKGRFTISRDNAKNTVSLQMNSLKPEDTAVYYCAAKRVHGATGYWGQGTQVTVSS”: “high polyreactivity”.

In the case of “QVQLVESGGGLVQAGGSLRLSCAASGRIFGSYAMGWYRQAHGKERELVAAIRWSGGSTYYADSVKGRFTISRDNAKNTVYLQMNSLKPEDTAVYYCAKTRTGYCFSYGYWGQGTQVTVSS”, the “polyreactivity (PSR sort gate)” value was “high polyreactivity”.

Consider “QVQLVESGGGLVQAGRSLRLSCAASGSIFRYYAMGWYRQAPGKERELVAAISSSGGSTYYADSVKGRFTISRDNAKNTVYLQMNSLKPEDTAVYYCAAVWLSGYGDNYWGQGTQVTVSS”, for which the “polyreactivity (PSR sort gate)” value was “high polyreactivity”.
